Legend:
hMC1-r [1] = target: T1, hMC1-r (Homo sapiens, UniProt Q01726); test: Scatchard Analysis on MC1-r transfected COS7 cells with AP-Ag; assay type: binding; conditions: culture supernatant containing up to 30 nM AP-Ag, estimated
T1 construct: expressed in transfected cells; host or cells: COS-7 cells, transient (DEAE-Dextran)
Description: (§1) COS-7 cells were transfected with hMC1-r or hMC4-r by the DEAE-Dextran method. A plasmid containing the Adenovirus VA1 and VA2 RNA genes was used to co-transfect the COS cells to enhance transient protein expression by increasing translational initiation. The MC4-r and the VA½ cDNA plasmids were used at a ratio of 10 to 1. Control plates received the VA½ plasmid alone. 48 hours post-transfection, the cells were rinsed and culture supernatant containing 15 nm of AP-Ag was added. AP-Ag is a truncated agouti protein, containing the cysteine-rich domain tagged with the alkaline phosphatase at its N-terminal. Binding of AP-Ag to transfected cells proceeded at room temperature for 90 minutes with gentle rocking. The cells were then washed 7 times before fixing and color development using NBT/BCIP substrate.
To assess the affinity of the agouti protein for the MC1-R receptor, a Scatchard Analysis was performed on MC1-r transfected COS7 cells using culture supernatant containing up to 30 nM AP-Ag. The Kd has been estimated at 20-30 nM range.

[2] = target: T2, Human melanocortin receptor 4 (hMC4-r) (Homo sapiens, UniProt P32245); test: Intracellular cAMP level in 293/MC4-R stable clones with agouti protein; assay type: cell-based; conditions: 5 nM agouti protein; 293/MC4-R line relative to the parental 293 cell line
T2 construct: expressed in transfected cells
T2 sequence (P32245 whole entry): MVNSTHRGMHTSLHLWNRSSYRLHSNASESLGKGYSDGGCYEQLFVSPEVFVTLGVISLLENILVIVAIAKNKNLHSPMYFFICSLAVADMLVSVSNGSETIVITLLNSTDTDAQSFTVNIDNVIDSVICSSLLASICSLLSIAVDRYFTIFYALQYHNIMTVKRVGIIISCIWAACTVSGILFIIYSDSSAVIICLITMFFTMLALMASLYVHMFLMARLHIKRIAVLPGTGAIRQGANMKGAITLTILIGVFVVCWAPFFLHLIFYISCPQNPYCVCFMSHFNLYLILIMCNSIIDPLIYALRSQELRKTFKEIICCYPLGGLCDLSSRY
Description: Human melanocortin receptor 4 (hMC4-r) cDNA, under the control of the CMV promoter, was transfected into the 293 cell line, and stable clones were selected (293/MC4-R). The stable clones were tested for reduction in intracellular cAMP levels in the presence of 5 nM agouti protein.
When 5 nM agouti protein was added to the 293/MC4-R line, an 18% reduction of intracellular cAMP level, relative to the parental 293 cell line, was observed.

hMC1-r [3] = target: T1, hMC1-r; test: Direct binding of AP-Ag to hMC1-r transfected COS-7 cells (AP staining); conditions: 15 nm AP-Ag, room temperature, 90 minutes; transfection efficiency typically 12-16%
Description: as §1
(§2) N-terminal truncated agouti protein, containing only the cysteine-rich C-terminal domain, retains the antagonizing activity of the full-length agouti. […]
(§3) The transfection efficiency, as monitored by β-galactosidase reporter plasmid, typically was 12-16%. 10-13% of the MC1-r transfected and 3-4% of the MC4-r transfected COS7 cells bound the agouti protein as determined by AP staining. […]

hMC4-r = target: T3, hMC4-r (Homo sapiens, UniProt P32245); test: Direct binding of AP-Ag to hMC4-r transfected COS-7 cells (AP staining); conditions: 15 nm AP-Ag, room temperature, 90 minutes; transfection efficiency typically 12-16%
T3 construct: expressed in transfected cells; host or cells: COS-7 cells, transient (DEAE-Dextran), co-transfected with Adenovirus VA1/VA2 RNA plasmid
T3 sequence (P32245 whole entry): as above
Description: as §1, §2, §3

T1 sequence (Q01726 whole entry): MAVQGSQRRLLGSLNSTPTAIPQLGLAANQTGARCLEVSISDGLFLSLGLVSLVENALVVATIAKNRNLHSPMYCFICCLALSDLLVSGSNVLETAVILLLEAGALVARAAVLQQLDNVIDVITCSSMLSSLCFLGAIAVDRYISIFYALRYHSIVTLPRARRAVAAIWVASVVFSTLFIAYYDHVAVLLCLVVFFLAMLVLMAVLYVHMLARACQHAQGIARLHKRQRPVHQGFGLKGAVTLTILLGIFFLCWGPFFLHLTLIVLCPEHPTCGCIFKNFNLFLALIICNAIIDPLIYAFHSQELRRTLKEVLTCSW

Row | Molecule | Kd (hMC1-r [1]) | reduction of intracellular cAMP level [2] | MC1-r transfected COS7 cells that bound the agouti protein as determined by AP staining (hMC1-r [3]) | MC4-r transfected COS7 cells that bound the agouti protein as determined by AP staining (hMC4-r)
1 | AP-Ag: truncated agouti protein, containing the cysteine-rich domain tagged with the alkaline phosphatase at its N-terminal | 20 to 30 nM | – | – | –
2 | agouti protein: gene product expressed in mice, involved in coat color and obesity when ectopically expressed; antagonizes melanocortin receptors (protein) HLALEETLGDDRSLRSNSSMNSLDFSSVSIVALNKKSKKISRKEAEKRKRSSKKKASMKKVARPPPPSPCVATRDSCKPPAPACCDPCASCQCRFFGSACTCRVLNPNC | – | 18% | 10-13% | 3-4%

— patent US20080009438A9, “Screening methods for compounds useful in the regulation of body weight” (Millennium Pharmaceuticals, Inc., priority 1996, published 2008)
